Test results reported in US20200308290A1.

What was measured:
[1] = biological target: FcγRIIB on transfected CHO cells (UniProt P31994); experiment: flow cytometry on FcγRIIB-transfected CHO cells, detection with anti-human kappa antibody, GFI against nM
[2] = biological target: FcγRIIIA on transfected CHO cells (UniProt P08637); experiment: flow cytometry on FcγRIIIA-transfected CHO cells, detection with anti-human kappa antibody, GFI against nM
Chain of FcγRIIIA on transfected CHO cells (P08637 17-254 limits assumed): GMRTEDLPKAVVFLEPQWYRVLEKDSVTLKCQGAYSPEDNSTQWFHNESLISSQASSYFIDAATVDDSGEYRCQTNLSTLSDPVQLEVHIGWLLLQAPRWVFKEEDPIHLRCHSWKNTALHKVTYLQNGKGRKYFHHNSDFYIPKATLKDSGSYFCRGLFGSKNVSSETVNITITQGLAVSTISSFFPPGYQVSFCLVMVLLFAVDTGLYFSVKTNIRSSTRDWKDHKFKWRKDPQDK

Chain of FcγRIIB on transfected CHO cells (P31994 43-310 limits assumed): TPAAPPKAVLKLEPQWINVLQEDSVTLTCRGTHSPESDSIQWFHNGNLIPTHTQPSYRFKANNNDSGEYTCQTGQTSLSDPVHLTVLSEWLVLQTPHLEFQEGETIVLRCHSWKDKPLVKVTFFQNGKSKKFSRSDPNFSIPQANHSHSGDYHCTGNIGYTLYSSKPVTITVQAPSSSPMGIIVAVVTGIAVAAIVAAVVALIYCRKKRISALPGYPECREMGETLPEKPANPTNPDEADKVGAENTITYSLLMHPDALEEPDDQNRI

EC50 (read off the curve) [1] | EC50 (read off the curve) [2] | Substance
2 nM |  | L328F (antibody)
 | 4 nM | N297A (antibody)
0.7 nM | 1 nM | S267E (antibody)
0.3 nM |  | SELF (antibody)
